The RNAGym collection of RNA variant scans (doi:10.1101/gr.219683.116)

B1: mRNA-splicing (parent)
chain: AGUUGCUGCUGGGAGCUCCAGCACAGUGAAAUGGACAGAAGGGCAGAGCAA

Variants of: B1
Assay: exon inclusion enrichment index; higher = more inclusion; WT1 exon 5 minigene, HEK293

Variant | exon inclusion enrichment index
G5C C6U G8C C9U U10C G38U A39C | 1.39
C6A U7A C9A U10A A47G G48C | 0.251
G5A U7C G8A U10C A29G A30U | 0.757
C6A U7A C9A U10A A29G A30G | 0.495
G5U G8U C9U G15A C16A | 0.0496
G5A C6U U7A G8U C9A G28C | 0.0466
G5C C6U G8C C9U U10C A29U A30C | 1.51
G5A C6U U7A G8U C9A G13C | 0.0162
G5U G8U C9U A14C G15C | 0.0167
G5C C6G U7C U10C U32A G33C | 3.67
C6A U7C C9A U10C G15A C16G | 2.11
G5C C6A U7C G8A U10A A35U C36A | 0.00105
C6A U7A C9A U10A C19U A20U | 0.19
U3A C6A U7C C9A U10C | 3.37
G5U U7C G8A U10A | 0.168
G5A U7C G8A C9U U10G | 0.887
G5A C6U U7A G8U C9A A30U A31U | 0.0488
G5A U7C G8A U10C A31C U32C | 3.58
G5U G8U C9U C19G | 0.0649
C19A A20G | 0.356
G5C C6U G8C C9U U10C C16U U17G | 0.905
G5C C6G U7C U10C A31C | 3.8
C6A U7A C9G U10C | 1.05
G5C C6U G8C C9U U10C G12U | 1.11

Variant | exon inclusion enrichment index
C6A U7A C9A U10A C24U A25C | 2.5
G5C C6U G8C C9U U10C C44U A45C | 2.63
U3C U4A G5C C6A U7C G8A U10A | 0.0745
G5A C6A U7G C9A | 0.107
G5C C6U G8C C9U U10C G28C A29G | 2.82
G11U G12U | 0.755
U10C | 2.72
C6A U7A C9A U10A A23U C24A | 0.207
G5C U7C G8A U10A | 0.03
G12C G13U | 0.237
G5U G8U C9U G21C | 0.162
G5C C6A U7G G8C C9U U10C | 1.36
C44G | 0.391
G5U G8U C9U G41A G42A | 0.107
G5A U7C G8A U10C C16U U17G | 0.815
G5A U7C G8A U10C A23C | 1.89
G5C C6U G8C C9A U10A | 1.21
C6A U7C C9A U10C G43U C44U | 1.21
C6A U7C C9A U10C G43U C44A | 0.0402
A39G A40U | 0.0108
C6A U7A C9A U10A G11A G12C | 2.24
U4A U7C G8A U10C | 0.474
G5A C6U U7A G8U C9A A30C A31U | 0.0899
G5A C6G U7G C9A A31C U32A | 0.00457

Variant | exon inclusion enrichment index
G5C C6G U7C U10C G33U G34C | 1.15
C24A A25U | 0.16
C6A U7C C9A U10C C16G U17G | 0.621
C6A U7A C9A U10A G21U C22G | 0.565
G2A U3C G5C C6A U7C G8A U10A | 0.124
G5C C6A U7C G8A U10A G13U | 0.00463
G5A C6G U7G C9A G46U | 0.000617
G2A G5A U7C G8A U10C | 3.39
G5C C6G U7C U10C A47G G48U | 0.733
G5C C6G U7C U10C A47G G48A | 2.55
U3A U4G G5C C6A U7C G8A U10A | 0.0901
C36G A37U | 0.0724
G5C C6U G8C C9U U10C C24U A25U | 1.95
G5C C6A U7C G8A U10A U32A G33C | 0.174
A20C G21A | 1.19
C6G U7C G8A U10C | 2.05
C6A U7A C9A U10A C19G A20C | 1.03
C6A U7A C9A U10A C19G A20G | 0.289
G5A U7C G8A U10C A20C G21A | 0.984
U3A U4A G5A U7C G8A U10C | 2.15
G5C C6U G8C C9U U10C A47G G48C | 0.706
G5A C6G U7G C9A G46C A47G | 0.00214
G5U G8U C9U C44U A45U | 0.0921
C6A U7A C9A U10A U17C C18A | 0.476

Variant | exon inclusion enrichment index
C6A U7C C9A U10C A30U A31U | 2.77
C6A U7C C9A U10C A30U A31C | 2.83
G5C C6A U7C G8A U10A G41A | 0.0572
G5A C6U U7A G8U C9A G43A C44A | 0.441
C6A U7A C9A U10A C44U A45C | 1.16
G5C C6G U7C U10C G38A A39G | 2.72
C6A U7A C9A U10A G41U G42C | 1.58
G5U G8U C9U A45U | 0.21
C6A U7A C9A U10A U32G G33C | 0.75
C6A U7A C9A U10A U32A G33A | 0.234
G5U G8U C9U C44A A45G | 0.326
G5A C6G U7G C9A G11C G12C | 0.00959
C6A U7C C9A U10C C44U | 1.32
G5U G8U C9U G33U G34U | 0.00702
G5U G8U C9U G33U G34A | 0.00858
G5C C6A U7C G8A U10A G21A | 0.0465
G5C C6G U7C U10C G12C G13C | 0.519
C6U U7C G8A U10A | 0.155
G5A C6G U7G C9A G46A A47G | 0.00174
U3C U4A | 0.0261
G5C C6U G8C C9U U10C A23C C24G | 3.11
G5A C6U U7A G8U C9A G13A A14C | 0.394
G5U G8U C9U G13U A14U | 0.0249
U4A G5A U7C G8A U10C | 2

Variant | exon inclusion enrichment index
G5A U7C G8A U10C C18A C19U | 0.0739
G5A C6G U7G C9A A35G | 0.00109
G5A C6G U7G C9A A35C | 0.00244
C6A U7C C9A U10C G41C | 3.93
C6A U7C C9A U10C A25C G26U | 3.89
U4C C6G U7G C9A | 0.355
G5C C6U G8C C9U U10C U32C G33C | 2.66
G5A C6G U7G C9A A20C G21C | 0.000907
G5A C6U U7A G8U C9A U10G | 0.00356
G5C C6U G8C C9U U10C U17G C18G | 1.96
G5U G8U C9U U10G G11A | 0.429
G5C C6G U7C U10C C24U | 1.76
G5C C6G U7C U10C A29C | 3.11
G5C C6U G8C C9U U10C C44G A45C | 3.14
G5C C6U G8C C9U U10C C44G A45U | 1.26
G5A U7C G8A U10C G38A A39G | 2.26
G5U G8U C9U U10A G11U | 0.0867
G5U G8U C9U G26U U27G | 0.458
G5U G8U C9U G26U U27A | 0.0473
C6A U7C C9A U10C A20G G21A | 3.72
G5C C6U G8C C9U U10C C22U A23U | 1.09
G5U G8U C9U G42C | 0.786
C6A U7C C9A U10C U32C G33A | 2.3
G5C C6U G8C C9U U10C A20U G21U | 1.12

Variant | exon inclusion enrichment index
G5A U7C G8A U10C A35C | 0.917
G5C C6A U7C G8A U10A C36A A37G | 0.0468
G5U G8U C9U G34U A35C | 0.0387
C6A U7C C9A U10C G34U A35U | 1.33
G5A C6G G8C C9U U10C | 0.0763
G5A C6G U7G C9A G13A A14U | 0.0021
G5A C6G U7G C9A C44G A45C | 0.00471
G5A U7C G8A U10C A30C A31C | 3.14
C6A U7A C9A U10A C19A | 0.348
C6A U7A C9A U10A C19U | 0.0565
C6A U7A C9A U10A | 0.801
G5A C6U U7A G8U C9A A37C G38A | 0.0896
G5C C6G U7C U10C G21C | 3.41
U4C G5C | 0.153
G5C C6A U7C G8A U10A U32G | 0.00606
G5C C6G U7C U10C A39G | 2.45
G5U C6A U7G G8U C9U | 0.013
C6A U7A C9A U10A A47U | 0.546
G5C C6A U7C U10A | 0.259
G5A C6U U7A G8U C9A A47G | 0.0115
G5A C6U U7A G8U C9A A47C | 0.133
U4G G5U C6G U7G C9A | 0.0442
G5A U7C G8A U10C A23U C24G | 2.69
G5C C6G U7C C9U U10C | 3.88

Variant | exon inclusion enrichment index
G5A C6U U7A G8U C9A A45C | 0.106
G5U G8U C9U G43C | 0.199
G5U G8C C9U | 0.417
G5C C6G | 0.0268
G5A C6U U7A G8U C9A C22A A23G | 0.0409
C6A U7A C9A U10A C36G A37G | 0.0922
U32A G33A | 0.0558
G5U G8U C9U U17C C18A | 0.0484
G5U G8U C9U A20C | 0.124
C19G A20G | 1.23
G5A C6G U7G C9A A29G A30C | 0.000858
G5C C6U G8C C9U U10C C36U | 0.515
G5A C6U U7A G8U C9A G46U A47C | 0.376
G38C | 0.09
G5A C6G U7G C9A C44A A45U | 0.0154
G5C C6U G8C C9U U10C A47C G48C | 1.78
G5C C6U G8C C9U U10C A47C G48A | 1.12
G5U G8U C9U G33C G34C | 0.0648
G5C C6A U7C G8A U10A U27A G28C | 0.152
C6A U7C C9A U10C G34C A35C | 0.445
C6A U7A C9A U10A A20G | 1.05
G5C C6U G8C C9U U10C G43A | 3.52
G5C C6U G8C C9U U10C G43U | 1.51
